Test results reported in paper doi:10.1101/2021.02.27.433148.
Where two headings read alike, the source gives them in different places.

Legend:
[1] = test system: Q80J94; assay: SEC
[2] = biological target: human norovirus GII.4 Saga P-domain (native, Asn373) (human norovirus GII.4 Saga); assay: native MS
[3] = biological target: human norovirus GII.4 Saga P-domain, fully deamidated at position 373 (iso-aspartate) (human norovirus GII.4 Saga)
[4] = biological target: murine norovirus (MNV) CR10 P-domain (murine norovirus, strain CR10) (UniProt Q80J94); assay: native MS
[5] = biological target: murine norovirus (MNV) CW1 P-domain (murine norovirus, strain CW1) (UniProt Q80J94); assay: NMR titration
[6] = biological target: murine norovirus (MNV) CW1 P-domain (murine norovirus, strain CW1) (UniProt Q80J94); assay: NMR titration; remark: listed apart in the source
[7] = biological target: murine norovirus (MNV) CW1 P-domain (murine norovirus, strain CW1) (UniProt Q80J94); assay: SEC
[8] = biological target: murine norovirus (MNV) CW1 P-domain (murine norovirus, strain CW1) (UniProt Q80J94); assay: SEC; remark: listed apart in the source

**Q.** Which “kex (printed as dissociation rate constant kex, from SEC peak tailing)” value [1] does the source give for murine norovirus (MNV) CW1 P-domain here?
**A.** The value was 0.03 s⁻¹.

**Q.** For “human norovirus GII.4 Saga P-domain (native, Asn373) (domain or fragment)”, which stoichiometry N [2] is on record?
**A.** The stoichiometry N was 2.

**Q.** “human norovirus GII.4 Saga P-domain point mutant N373Q (domain or fragment)” was tested. Which koff [3] did it give?
**A.** Its koff is 1.5e-06 s⁻¹.

**Q.** How did the Kd [4] turn out when “murine norovirus (MNV) CR10 P-domain (from UniProt Q80J94 229-531) (domain or fragment)” was run?
**A.** Its Kd is 32 µM.

**Q.** What about the stoichiometry N [4] of the same substance?
**A.** Its stoichiometry N is 2.

**Q.** For “murine norovirus (MNV) CW1 P-domain (from UniProt Q80J94 225-541) (domain or fragment)”, which Kd [5] is on record?
**A.** Its Kd is 31 µM.

**Q.** And the dimer half-life t1/2 [5]?
**A.** The dimer half-life t1/2 was 17 s.

**Q.** What about the Kd [6] of the same substance?
**A.** Its Kd is 12.5 µM.

**Q.** What about the koff [6] of the same substance?
**A.** The koff was 0.035 s⁻¹.

**Q.** And the kon [6]?
**A.** Its kon is 2800 M⁻¹ s⁻¹.

**Q.** And the Kd [7]?
**A.** Its Kd is 40 µM.

**Q.** And the stoichiometry N [7]?
**A.** Its stoichiometry N is 2.

**Q.** What about the stoichiometry N [8] of the same substance?
**A.** The stoichiometry N was 2.
